Measurements taken from paper PMC8616692.

Biological target: 3CLpro (chymotrypsin-like cysteine protease, nsp5) of SARS-CoV-2, wild type (SARS-CoV-2)
Assay: SEC

## 3CLpro (chymotrypsin-like cysteine protease, nsp5) of SARS-CoV-2, wild type (enzyme)
  stoichiometry N: 2
